Results published in the Human Domainome abundance scans (Beltran et al. 2025).

B1: Homeobox protein cut-like 1, residues 548 to 629; numbered along this chain, P39880 (parent)
chain: GEEMDTAEIARQVKEQLIKHNIGQRIFGHYVLGLSQGSVSEILARPKPWNKLTVRGKEPFHKMKQFLSDEQNILALRSIQGR

Variants of: B1
Test: abundance fitness (aPCA) (normalised: wild type 0, dead -1); higher = more abundant; growth selection in yeast, the domain comes from the species named
Details: Homo sapiens

Abundance fitness: each site, then its substitutions
Q65: N 0.022 | K -0.076 | V -0.117 | L -0.082 | P -0.933 | R -0.039 | Y -0.169 | S -0.059 | M -0.056 | W -0.201 | T -0.029
D69: N -0.015 | K -0.108 | Y -0.351 | T -0.181 | R -0.207 | M -0.231 | W -0.387 | P -0.75 | V -0.308 | L -0.318 | E -0.134 | A -0.174 | I -0.425 | H -0.182 | F -0.252 | G -0.267
N72: R -0.137 | L -0.251 | T -0.115 | C -0.098 | F -0.143 | M -0.132 | H -0.063 | V -0.315 | P -0.432 | W -0.131 | Y -0.099 | G -0.04 | I -0.289 | Q 0.03 | A 0.049 | D -0.221 | K -0.007
I73: S 0.005 | H -0.5 | W 0.05 | E -0.637 | Y -0.627 | Q -0.336 | A -0.019 | P -0.303 | M -0.064 | L -0.064 | V 0.038 | T -0.163 | C -0.129 | R -0.56 | G -0.44 | F -0.026 | N -0.51 | D -0.745
L74: T -0.087 | N -0.064 | K 0.029 | G -0.159 | C -0.162 | A -0.039 | E 0.008 | W -0.098 | V 0.017 | D -0.019 | I 0.032 | Y -0.112 | Q 0.005 | F -0.028 | H 0.007 | M -0.074 | P -0.417 | R -0.041 | S -0.083
F66: N -0.781 | M -0.648 | C -0.963 | W 0.116 | A -0.758 | G -0.934 | Q -0.791 | K -0.829 | P -0.77 | I -0.573 | L -0.662 | R -1.04 | E -0.887 | H -0.966 | S -0.829 | Y -0.924
E70: P 0.026 | I -0.187 | S -0.083 | Q -0.047 | M -0.139 | W -0.217 | A -0.026 | N -0.084 | G -0.126 | C -0.118 | F -0.213 | T -0.121 | R -0.055 | L -0.307 | D -0.043 | Y -0.152 | H 0.001 | V -0.154
S68: Y -0.297 | W -0.4 | K -0.023 | L -0.088 | Q -0.049 | H -0.292 | T -0.122 | P -0.656 | V -0.304 | D -0.02 | F -0.187 | R -0.157 | M -0.083 | I -0.198 | C -0.133 | A -0.041 | E 0.013
L67: H -1.21 | K -0.918 | Q -0.978 | V -0.243 | R -0.979 | F -0.341 | D -0.876 | C -0.498 | I -0.303 | N -0.582 | S -1.01 | A -0.736 | M -0.284 | G -0.848 | W -0.817 | Y -0.609
A75: E 0.092 | C -0.11 | D 0.109
Q71: D -0.035 | C -0.11 | N -0.099 | H -0.16 | P -0.673 | M -0.137 | R -0.049 | I -0.212 | V -0.2 | Y -0.257 | S 0.047 | E 0.06 | T -0.011 | G -0.037 | W -0.293 | F -0.204
